Results published in PMC2267159 (BMC Biology, 2008).

Molecular target: the molecule itself
Assay: SDS-PAGE

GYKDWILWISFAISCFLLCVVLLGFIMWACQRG [TMD peptide of HA2 (strain X:31) of influenza virus, unlabeled]
binding result: binds
